# Results reported in patent US5688640A, “Methods of screening of effectors of endothelin converting enzyme-1” (Board of Regents, The University of Texas System, priority 1994, dated 1997).
# T1: ECE-1 (Bos taurus, UniProt P42891)
# T1 construct: The entire coding regions from bovine ECE-1; made in house
# T1 sequence (P42891 with tags, fused parts or gaps A87G/A695G limits assumed): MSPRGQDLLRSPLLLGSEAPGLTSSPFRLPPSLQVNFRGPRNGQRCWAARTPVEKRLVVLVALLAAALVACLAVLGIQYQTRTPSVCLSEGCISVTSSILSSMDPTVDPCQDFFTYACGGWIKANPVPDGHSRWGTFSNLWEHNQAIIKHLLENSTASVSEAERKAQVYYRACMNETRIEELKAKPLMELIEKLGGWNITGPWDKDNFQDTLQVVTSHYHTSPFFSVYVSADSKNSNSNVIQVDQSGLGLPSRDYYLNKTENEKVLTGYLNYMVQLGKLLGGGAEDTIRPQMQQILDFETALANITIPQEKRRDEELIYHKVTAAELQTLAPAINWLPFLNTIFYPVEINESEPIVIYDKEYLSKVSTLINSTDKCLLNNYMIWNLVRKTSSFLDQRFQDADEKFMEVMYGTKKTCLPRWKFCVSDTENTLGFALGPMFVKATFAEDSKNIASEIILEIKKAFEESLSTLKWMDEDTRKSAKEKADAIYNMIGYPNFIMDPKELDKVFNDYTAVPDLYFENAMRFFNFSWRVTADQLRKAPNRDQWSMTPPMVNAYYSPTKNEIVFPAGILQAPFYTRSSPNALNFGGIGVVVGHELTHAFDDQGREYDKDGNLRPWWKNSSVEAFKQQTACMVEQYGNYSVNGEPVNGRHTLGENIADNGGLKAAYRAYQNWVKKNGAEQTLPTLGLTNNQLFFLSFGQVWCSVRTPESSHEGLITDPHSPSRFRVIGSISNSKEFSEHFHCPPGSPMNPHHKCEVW
# Experiments:
# [1] = target: T1, ECE-1; experiment: Secretion of big and mature ET-1 by preproET-1-transfected CHO/ECE-1 cells (conversion of endogenous big ET-1); format: cell-based, bovine; conditions: preproET-1-transfected CHO/ECE-1 cells
# Protocol: Transient transfection of the preproET-1 cDNA was performed by the DEAE-dextran method as described (Sakurai et al., 1990). Twelve hours after transfection, cells were refed with fresh medium with or without ECE inhibitors. The medium was conditioned for an additional 12 hours and directly subjected to EIA for mature and big ET-1 (Suzuki et al., 1990; Suzuki et al., 1989). For the Ca^2+ transient bioassay (see below), Phenol Red-free CHO-SFM medium (Gibco/BRL) without serum was used in order to avoid artefacts induced by serum and the dye.
# To examine whether the expressed ECE-1 can convert big ET-1 in intact cells, paired cultures of CHO/ECE-1 cells and untransfected CHO cells were transiently transfected with the preproET-1 construct. After the transient transfection, the amounts of mature and big ET-1 secreted into the medium were measured by EIA. […] The functional authenticity of the immunoreactive mature peptide produced from the double-transfected cells was examined with a bioassay system that uses another line of CHO cells expressing human ETA receptors as reporter cells. […] The cells were loaded with the Ca^2+ indicator Fura-2/AM, and directly challenged with serum-free, Phenol Red-free culture supernatants from the aforementioned double-transfection protocols. […] Next the supernatants from the preproET-1-transfected CHO/ECE-1 cells were added, so that the final concentration of ET-1 as measured by EIA was ≈20 pM.
# [2] = ET-1(1-20) and ET-1(1-22) relative to authentic ET-1(1-21); cited from earlier work
# [3] = tested on: NEP; conditions: cited from earlier work
# [4] = target: T1, ECE-1; experiment: pH profile of ECE-1 activity in solubilized CHO/ECE-1 membranes; format: biochemical, bovine
# Protocol: FIG. 2C. pH profile of ECE-1 activity expressed in solubilized CHO/ECE-1 membranes.
# Reaction mixtures for ECE assay (50 μl) contained 0.1M sodium phosphate buffer (pH 6.8), 0.5M NaCl, 0.1 μM human big ET-1(1-38) and enzyme fraction. For some studies, the reactions were preincubated at 37° C. with various protease inhibitors for 15 minutes prior to the addition of big ET-1. The reactions were incubated at 37° C. for 30 min in siliconized 0.5-ml microcentrifuge tubes. […] Duplicate assay wells were used for each enzyme reaction. Protein concentration was determined by the Bradford method (Bio-Rad) using IgG as standard.
Molecule,concentration secreted in culture supernatant [1] [pM],vasoconstrictor/biological activity (in words) [2],degradation by NEP (in words) [3],optimal pH of ECE activity [4]
mature ET-1: 21-residue mature peptide; human ET-1(1-21) obtained from American Peptides,241,the most potent vasoconstrictor substance known,rapidly degrades,
"ECE-1: novel 758-amino acid polypeptide, bovine endothelin converting enzyme-1 (protein, UniProt P42891 1-754, looked up, full-length) MMSTYKRATLDEEDLVDSLSESDVYPNHLQVNFRGPRNGQRCWAARTPVEKRLVVLVALLAAALVACLAVLGIQYQTRTPSVCLSEACISVTSSILSSMDPTVDPCQDFFTYACGGWIKANPVPDGHSRWGTFSNLWEHNQAIIKHLLENSTASVSEAERKAQVYYRACMNETRIEELKAKPLMELIEKLGGWNITGPWDKDNFQDTLQVVTSHYHTSPFFSVYVSADSKNSNSNVIQVDQSGLGLPSRDYYLNKTENEKVLTGYLNYMVQLGKLLGGGAEDTIRPQMQQILDFETALANITIPQEKRRDEELIYHKVTAAELQTLAPAINWLPFLNTIFYPVEINESEPIVIYDKEYLSKVSTLINSTDKCLLNNYMIWNLVRKTSSFLDQRFQDADEKFMEVMYGTKKTCLPRWKFCVSDTENTLGFALGPMFVKATFAEDSKNIASEIILEIKKAFEESLSTLKWMDEDTRKSAKEKADAIYNMIGYPNFIMDPKELDKVFNDYTAVPDLYFENAMRFFNFSWRVTADQLRKAPNRDQWSMTPPMVNAYYSPTKNEIVFPAGILQAPFYTRSSPNALNFGGIGVVVGHELTHAFDDQGREYDKDGNLRPWWKNSSVEAFKQQTACMVEQYGNYSVNGEPVNGRHTLGENIADNGGLKAAYRAYQNWVKKNGAEQTLPTLGLTNNQLFFLSFAQVWCSVRTPESSHEGLITDPHSPSRFRVIGSISNSKEFSEHFHCPPGSPMNPHHKCEVW",,,,6.8
